Data as given in patent publication US20240238401A1.

Target: mAb binding to Consensus GII.4 VLPs (BioGenes; IgG clone #1-9-1)
Assay: IVRP competition ELISA; serially diluted thin-film freeze-dried and reconstituted vaccine (4% trehalose or 5% sucrose, bulk or single-vial TFFD) competes for mAb against plate-coated VLP; reference is undried vaccine

Norovirus genotype GII.4 Consensus VLP (from UniProt P54635 1-539)
relative potency (IVRP; inflection point of test vaccine divided by that of reference vaccine): 49 to 73%
